In patent EP4786492A1:

Columns and labels:
[1] = biological target: human delta-like ligand 3 (DLL3) on SHP77 cells (human) (UniProt Q9NYJ7); test: FACS on SHP77 cells
[2] = biological target: DLL3 endogenously expressed on NCI-H82 cells (UniProt Q9NYJ7); test: FACS on NCI-H82 cells; antibody 4 nM
[3] = biological target: DLL3 endogenously expressed on NCI-H82 cells (UniProt Q9NYJ7); test: FACS on NCI-H82 cells; antibody 20 nM
[4] = biological target: DLL3 endogenously expressed on NCI-H82 cells (UniProt Q9NYJ7); test: FACS on NCI-H82 cells; antibody 0.8 nM
[5] = biological target: DLL3 endogenously expressed on NCI-H82 cells (UniProt Q9NYJ7); test: FACS on NCI-H82 cells; antibody 100 nM
[6] = biological target: DLL3 endogenously expressed on NCI-H82 cells (UniProt Q9NYJ7); test: FACS on NCI-H82 cells; antibody 0.16 nM
[7] = biological target: human DLL3 protein expressed on CHO-K1 recombinant cells (human DLL3 extracellular segment fused to EpCAM transmembrane and intracellular regions) (human) (UniProt Q9NYJ7); test: FACS, CHO-K1 hDLL3 cells, 4 nM antibody
[8] = biological target: mouse DLL3 on CHO-K1-mDLL3 cells (mouse) (UniProt O88516); test: FACS, CHO-K1-mDLL3 cells, 4 nM antibody
[9] = biological target: DLL3 endogenously expressed on NCI-H82 cells (UniProt Q9NYJ7); test: FACS on NCI-H82 cells; antibody 0.032 nM
[10] = biological target: human DLL3 protein expressed on CHO-K1 recombinant cells (human DLL3 extracellular segment fused to EpCAM transmembrane and intracellular regions) (human) (UniProt Q9NYJ7); test: FACS, CHO-K1 hDLL3 cells, 20 nM antibody
[11] = biological target: mouse DLL3 on CHO-K1-mDLL3 cells (mouse) (UniProt O88516); test: FACS, CHO-K1-mDLL3 cells, 20 nM antibody
[12] = biological target: DLL3 endogenously expressed on NCI-H82 cells (UniProt Q9NYJ7); test: FACS on NCI-H82 cells; antibody 0.0064 nM
[13] = biological target: human DLL3 protein expressed on CHO-K1 recombinant cells (human DLL3 extracellular segment fused to EpCAM transmembrane and intracellular regions) (human) (UniProt Q9NYJ7); test: FACS, CHO-K1 hDLL3 cells, 0.8 nM antibody
[14] = biological target: human DLL3 protein expressed on CHO-K1 recombinant cells (human DLL3 extracellular segment fused to EpCAM transmembrane and intracellular regions) (human) (UniProt Q9NYJ7); test: FACS, CHO-K1 hDLL3 cells, 100 nM antibody
[15] = biological target: mouse DLL3 on CHO-K1-mDLL3 cells (mouse) (UniProt O88516); test: FACS, CHO-K1-mDLL3 cells, 0.8 nM antibody
[16] = biological target: mouse DLL3 on CHO-K1-mDLL3 cells (mouse) (UniProt O88516); test: FACS, CHO-K1-mDLL3 cells, 100 nM antibody
[17] = biological target: DLL3 endogenously expressed on NCI-H82 cells (UniProt Q9NYJ7); test: FACS on NCI-H82 cells; antibody 0.00128 nM
[18] = biological target: human DLL3 protein expressed on CHO-K1 recombinant cells (human DLL3 extracellular segment fused to EpCAM transmembrane and intracellular regions) (human) (UniProt Q9NYJ7); test: FACS, CHO-K1 hDLL3 cells, 0.16 nM antibody
[19] = biological target: mouse DLL3 on CHO-K1-mDLL3 cells (mouse) (UniProt O88516); test: FACS, CHO-K1-mDLL3 cells, 0.16 nM antibody
[20] = biological target: human DLL3 protein expressed on CHO-K1 recombinant cells (human DLL3 extracellular segment fused to EpCAM transmembrane and intracellular regions) (human) (UniProt Q9NYJ7); test: FACS, CHO-K1 hDLL3 cells, 0.032 nM antibody
[21] = biological target: monkey DLL3 on CHO-K1-cyno DLL3 cells (cynomolgus monkey); test: FACS, CHO-K1-cyno DLL3 cells, 4 nM antibody
[22] = biological target: mouse DLL3 on CHO-K1-mDLL3 cells (mouse) (UniProt O88516); test: FACS, CHO-K1-mDLL3 cells, 0.032 nM antibody
[23] = biological target: human DLL3 protein expressed on CHO-K1 recombinant cells (human DLL3 extracellular segment fused to EpCAM transmembrane and intracellular regions) (human) (UniProt Q9NYJ7); test: FACS, CHO-K1 hDLL3 cells, 0.0064 nM antibody
[24] = biological target: monkey DLL3 on CHO-K1-cyno DLL3 cells (cynomolgus monkey); test: FACS, CHO-K1-cyno DLL3 cells, 20 nM antibody
[25] = biological target: mouse DLL3 on CHO-K1-mDLL3 cells (mouse) (UniProt O88516); test: FACS, CHO-K1-mDLL3 cells, 0.0064 nM antibody
[26] = biological target: human DLL3 protein expressed on CHO-K1 recombinant cells (human DLL3 extracellular segment fused to EpCAM transmembrane and intracellular regions) (human) (UniProt Q9NYJ7); test: FACS, CHO-K1 hDLL3 cells, 0.00128 nM antibody
[27] = biological target: monkey DLL3 on CHO-K1-cyno DLL3 cells (cynomolgus monkey); test: FACS, CHO-K1-cyno DLL3 cells, 0.8 nM antibody
[28] = biological target: monkey DLL3 on CHO-K1-cyno DLL3 cells (cynomolgus monkey); test: FACS, CHO-K1-cyno DLL3 cells, 100 nM antibody
[29] = biological target: mouse DLL3 on CHO-K1-mDLL3 cells (mouse) (UniProt O88516); test: FACS, CHO-K1-mDLL3 cells, 0.00128 nM antibody
[30] = biological target: monkey DLL3 on CHO-K1-cyno DLL3 cells (cynomolgus monkey); test: FACS, CHO-K1-cyno DLL3 cells, 0.16 nM antibody
[31] = biological target: monkey DLL3 on CHO-K1-cyno DLL3 cells (cynomolgus monkey); test: FACS, CHO-K1-cyno DLL3 cells, 0.032 nM antibody
[32] = biological target: monkey DLL3 on CHO-K1-cyno DLL3 cells (cynomolgus monkey); test: FACS, CHO-K1-cyno DLL3 cells, 0.0064 nM antibody
[33] = biological target: monkey DLL3 on CHO-K1-cyno DLL3 cells (cynomolgus monkey); test: FACS, CHO-K1-cyno DLL3 cells, 0.00128 nM antibody
[34] = biological target: human DLL1 protein (Acro, Cat. No. DL1-H52H8) (human) (UniProt O00548); test: ELISA, coated hDLL1; maximum over 0.1, 1, 10, 100 nM antibody
[35] = biological target: human DLL4 protein (Acro, Cat. No. DL4-H5227) (human) (UniProt Q9NR61); test: ELISA, coated hDLL4; maximum over 0.1, 1, 10, 100 nM antibody
[36] = biological target: human DLL3 protein (extracellular segment, His tag) (human) (UniProt Q9NYJ7); test: SPR (Biacore 8K), antibody captured on Protein A chip, DLL3 antigen in solution, 1:1 Langmuir fit
Sequence of human DLL3 protein (extracellular segment, His tag) (human) (Q9NYJ7 27-492): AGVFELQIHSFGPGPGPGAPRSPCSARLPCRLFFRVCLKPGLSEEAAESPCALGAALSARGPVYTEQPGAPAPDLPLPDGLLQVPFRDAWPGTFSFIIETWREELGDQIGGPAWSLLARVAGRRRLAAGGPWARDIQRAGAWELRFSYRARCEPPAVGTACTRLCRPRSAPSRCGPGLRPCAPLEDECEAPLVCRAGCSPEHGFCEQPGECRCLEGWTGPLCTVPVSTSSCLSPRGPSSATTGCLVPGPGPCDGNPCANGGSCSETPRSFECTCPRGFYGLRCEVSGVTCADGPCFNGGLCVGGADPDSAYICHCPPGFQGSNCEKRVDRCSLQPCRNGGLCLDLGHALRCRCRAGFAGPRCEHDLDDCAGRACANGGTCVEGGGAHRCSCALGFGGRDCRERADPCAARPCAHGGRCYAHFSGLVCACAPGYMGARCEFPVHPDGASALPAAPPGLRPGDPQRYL

Sequence of monkey DLL3 on CHO-K1-cyno DLL3 cells (cynomolgus monkey) (chain, as listed by the source limits assumed): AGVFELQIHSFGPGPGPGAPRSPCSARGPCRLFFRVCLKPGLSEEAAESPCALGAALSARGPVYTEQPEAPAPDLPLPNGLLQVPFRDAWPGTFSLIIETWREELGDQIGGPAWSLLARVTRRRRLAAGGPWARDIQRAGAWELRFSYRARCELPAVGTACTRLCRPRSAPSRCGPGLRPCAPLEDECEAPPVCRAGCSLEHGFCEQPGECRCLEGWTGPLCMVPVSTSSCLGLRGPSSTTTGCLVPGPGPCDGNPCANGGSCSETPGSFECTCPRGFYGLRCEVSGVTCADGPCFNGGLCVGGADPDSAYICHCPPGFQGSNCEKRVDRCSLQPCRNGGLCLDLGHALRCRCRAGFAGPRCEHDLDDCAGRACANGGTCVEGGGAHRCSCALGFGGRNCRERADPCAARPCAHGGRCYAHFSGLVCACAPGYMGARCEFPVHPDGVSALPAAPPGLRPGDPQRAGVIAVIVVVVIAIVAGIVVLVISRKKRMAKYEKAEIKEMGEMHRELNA
Sequence of DLL3 endogenously expressed on NCI-H82 cells (Q9NYJ7 27-618): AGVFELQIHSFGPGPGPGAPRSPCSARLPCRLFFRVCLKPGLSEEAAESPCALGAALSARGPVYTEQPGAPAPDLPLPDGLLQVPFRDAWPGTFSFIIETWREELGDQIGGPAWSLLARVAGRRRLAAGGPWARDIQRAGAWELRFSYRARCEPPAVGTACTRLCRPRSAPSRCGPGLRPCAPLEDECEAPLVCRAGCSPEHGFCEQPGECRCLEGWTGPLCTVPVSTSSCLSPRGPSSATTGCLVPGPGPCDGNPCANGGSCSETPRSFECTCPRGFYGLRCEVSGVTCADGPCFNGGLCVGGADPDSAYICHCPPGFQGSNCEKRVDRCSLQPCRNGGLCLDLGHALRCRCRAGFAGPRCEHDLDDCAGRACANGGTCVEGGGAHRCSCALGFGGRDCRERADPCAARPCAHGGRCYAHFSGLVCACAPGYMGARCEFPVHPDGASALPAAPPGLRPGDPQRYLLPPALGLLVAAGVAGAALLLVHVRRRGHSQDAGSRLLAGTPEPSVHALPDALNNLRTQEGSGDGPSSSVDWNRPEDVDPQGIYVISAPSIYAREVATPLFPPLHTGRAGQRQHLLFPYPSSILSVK
Sequence of human delta-like ligand 3 (DLL3) on SHP77 cells (human) (Q9NYJ7 27-618, stated change not applied): as the sequence (Q9NYJ7 27-618) above
Sequence of human DLL3 protein expressed on CHO-K1 recombinant cells (human DLL3 extracellular segment fused to EpCAM transmembrane and intracellular regions) (human) (Q9NYJ7 other isoform, or with tags, fused parts or gaps limits assumed): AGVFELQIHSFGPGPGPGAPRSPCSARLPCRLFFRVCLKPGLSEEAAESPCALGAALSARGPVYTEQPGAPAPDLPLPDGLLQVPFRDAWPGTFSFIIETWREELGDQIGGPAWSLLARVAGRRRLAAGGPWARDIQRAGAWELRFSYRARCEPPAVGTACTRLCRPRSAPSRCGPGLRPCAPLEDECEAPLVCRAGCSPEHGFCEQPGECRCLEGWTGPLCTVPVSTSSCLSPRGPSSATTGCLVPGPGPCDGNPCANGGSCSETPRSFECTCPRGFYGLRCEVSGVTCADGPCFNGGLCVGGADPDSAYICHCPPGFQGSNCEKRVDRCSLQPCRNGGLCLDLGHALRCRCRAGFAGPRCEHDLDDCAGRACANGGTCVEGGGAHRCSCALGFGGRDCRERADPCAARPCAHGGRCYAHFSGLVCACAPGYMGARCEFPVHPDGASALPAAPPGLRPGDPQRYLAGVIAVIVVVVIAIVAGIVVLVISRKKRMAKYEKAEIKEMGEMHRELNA
Sequence of mouse DLL3 on CHO-K1-mDLL3 cells (mouse) (O88516 other isoform, or with tags, fused parts or gaps limits assumed): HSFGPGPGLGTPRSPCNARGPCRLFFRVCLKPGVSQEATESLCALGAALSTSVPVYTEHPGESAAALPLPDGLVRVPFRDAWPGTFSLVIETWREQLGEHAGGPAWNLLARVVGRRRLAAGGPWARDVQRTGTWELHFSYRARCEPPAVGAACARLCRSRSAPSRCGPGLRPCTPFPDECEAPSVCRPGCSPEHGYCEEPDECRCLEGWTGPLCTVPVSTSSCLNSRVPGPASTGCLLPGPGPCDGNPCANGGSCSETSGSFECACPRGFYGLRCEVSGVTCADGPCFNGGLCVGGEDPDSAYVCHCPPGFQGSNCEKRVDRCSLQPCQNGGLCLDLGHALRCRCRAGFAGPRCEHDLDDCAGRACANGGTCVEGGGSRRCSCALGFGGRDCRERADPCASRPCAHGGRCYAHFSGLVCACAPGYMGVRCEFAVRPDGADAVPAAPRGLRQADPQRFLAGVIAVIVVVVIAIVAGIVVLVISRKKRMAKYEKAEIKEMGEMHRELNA
Sequence of human DLL4 protein (Acro, Cat. No. DL4-H5227) (human) (Q9NR61 27-524 limits assumed): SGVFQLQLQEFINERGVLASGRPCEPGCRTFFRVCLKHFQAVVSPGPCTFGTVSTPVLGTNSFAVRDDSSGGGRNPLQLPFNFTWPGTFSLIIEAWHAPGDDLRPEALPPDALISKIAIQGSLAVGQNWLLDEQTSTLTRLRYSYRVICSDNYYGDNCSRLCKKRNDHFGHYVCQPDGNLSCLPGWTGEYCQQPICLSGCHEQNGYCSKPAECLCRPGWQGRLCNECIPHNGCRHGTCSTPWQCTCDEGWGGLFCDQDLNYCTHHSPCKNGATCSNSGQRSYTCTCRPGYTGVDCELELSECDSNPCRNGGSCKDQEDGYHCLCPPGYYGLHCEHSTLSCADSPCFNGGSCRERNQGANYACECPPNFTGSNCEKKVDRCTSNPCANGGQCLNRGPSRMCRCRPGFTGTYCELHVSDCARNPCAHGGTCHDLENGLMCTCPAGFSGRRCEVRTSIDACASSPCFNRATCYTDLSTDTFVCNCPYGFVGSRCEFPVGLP
Sequence of human DLL1 protein (Acro, Cat. No. DL1-H52H8) (human) (O00548 18-540 limits assumed): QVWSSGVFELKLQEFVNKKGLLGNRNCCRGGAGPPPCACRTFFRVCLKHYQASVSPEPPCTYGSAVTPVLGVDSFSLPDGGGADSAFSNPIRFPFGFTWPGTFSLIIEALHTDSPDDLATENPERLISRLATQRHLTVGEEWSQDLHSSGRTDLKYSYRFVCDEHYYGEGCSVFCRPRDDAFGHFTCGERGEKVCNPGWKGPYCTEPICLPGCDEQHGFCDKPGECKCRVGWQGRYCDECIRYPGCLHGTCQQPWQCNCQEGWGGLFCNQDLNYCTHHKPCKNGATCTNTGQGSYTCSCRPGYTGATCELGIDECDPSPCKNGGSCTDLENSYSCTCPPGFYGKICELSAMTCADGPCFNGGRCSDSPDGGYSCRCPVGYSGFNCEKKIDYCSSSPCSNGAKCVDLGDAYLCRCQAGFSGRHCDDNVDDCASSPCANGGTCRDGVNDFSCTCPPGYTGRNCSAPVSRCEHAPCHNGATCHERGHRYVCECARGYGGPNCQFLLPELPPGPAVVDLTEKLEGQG

B1: Hab006VL1VH4-hFc (scFv, part only; not given: VL-VH linker and human IgG1 Fc, V domains shown, not shown: another chain or arm of the molecule; a dimerising Fc or GST; small tags and cut ends)
VL: DIQMTQSPSSLSASVGDRVTITCRATKSISKYLAWYQQKPGKAPKLLIFSGSTLQSGVPSRFSGSGSGTDFTLTISSLQPEDFATYYCQQHHEYPYTFGGGTKVEIK
VH: EVQLVQSGAEVKKPGASVKVSCKASGYTFTSYWMHWVRQAPGQRLEWMGVIDPSDSLANYNQEFKGRVTLTVDTSSSTAYMELSSLRSEDTAVYYCARDSTVVAPMDYWGQGTTVTVSS
Work on B1 yielded an MFI at 0.00128 nM [1] of 208 MFI, an MFI at 0.0064 nM [1] of 275 MFI and an MFI at 0.032 nM [1] of 458 MFI. The MFI at 0.16 nM [1] was 938 MFI, the MFI at 0.8 nM [1] was 1310 MFI and the MFI at 4 nM [1] was 1410 MFI. The MFI at 20 nM [1] was 1600 MFI, the MFI at 100 nM [1] was 1890 MFI and the MFI [2] was 291. It also gave an MFI [3] of 519, an MFI [4] of 412 and an MFI [5] of 626. For the same binder, the MFI [6] was 367, the MFI [7] was 12700 MFI and the MFI [8] was 615 MFI. The MFI [9] was 242, the MFI [10] was 13600 MFI and the MFI [11] was 627 MFI. For the same binder, the MFI [12] was 155, the MFI [13] was 7270 MFI and the MFI [14] was 14300 MFI. The MFI [15] was 529 MFI, the MFI [16] was 589 MFI and the MFI [17] was 126. The MFI [18] was 3100 MFI, the MFI [19] was 406 MFI and the MFI [20] was 1050 MFI. It also gave an MFI [21] of 8590 MFI, an MFI [22] of 246 MFI and an MFI [23] of 716 MFI. It also gave an MFI [24] of 9060 MFI, an MFI [25] of 187 MFI and an MFI [26] of 419 MFI. The MFI [27] was 7840 MFI, the MFI [28] was 9720 MFI and the MFI [29] was 126 MFI. The MFI [30] was 5000 MFI, the MFI [31] was 1730 MFI and the MFI [32] was 1380 MFI. The MFI [33] was 750 MFI, the Emax of OD450 nm binding value [34] was 0.07 OD450 nm and the Emax of OD450 nm binding value [35] was 0.15 OD450 nm. The Kd [36] was 568 pM, the koff [36] was 0.000221 s⁻¹ and the kon [36] was 389000 M⁻¹ s⁻¹.
